The data set is described as follows: yeast display, Sf9 membrane polyspecificity reagent, FACS + sequencing; frameworks hold sequencing errors. The procedure, abridged: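 Using colony PCR, genes from sorted yeast display clones were amplified, then sequenced on MiSeq at 2 × 250 and filtered by CDR length. The clones had been stained with 10% biotinylated, detergent-solubilized Sf9 membrane reagent for 1 hour at 4 °C and sorted by FACS into low and high (top ~1%) gates on anti-HA and streptavidin fluorescence. Polyreactivity labels come from the gate of origin.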
For the sequence “QVHLVESGGGLVQAGGSLRLSCAASGLIFGRNAMGWYRQAPGKERELVAAISTRGGSTYYADSVKGRFTISRDNAKNTVYLQMNSLKPEDTAVYYCAARGSYGYDYWGQGPQVTVSS”, the “polyreactivity (PSR sort gate)” value is listed as “high polyreactivity”.

In the case of “QVHLVESGGGLVQAGGSLRLSCAASGLIFSFYPMGWYRQAPGKERELVAGINWRGGSTYYADSVKGRFTISRDNAKNTVYLQMNSLKPEETAVYYCAAPSYYYGYWGQGTQVTVLS”, the “polyreactivity (PSR sort gate)” value was “high polyreactivity”.

As for “QVHLVESGGGLVQAGGSLRLSCAASGLTFNRYTMGWYRQAPGKESELVAAITSSGSTYYADSVKGRFTISRDNAKNTVNLQMNSLKPEDTAVDYCNTVYYDWFHYDYWGQGTQVTVSS”, the “polyreactivity (PSR sort gate)” value is recorded as “high polyreactivity”.

“QVHLVESGGGLVQAGGSLRLSCAASGNSLRVYAMGWYRQAPGKERELVAAISYSSVNTYYADSVKGRFTISRDNAKNTVYLQMNSLKPEETAVYYCAADYFYYRRTQYDLRGYPYYYWGQGTQVTVSS”: the “polyreactivity (PSR sort gate)” value was “low polyreactivity”.

Turning to “QVHLVESGGGLVQAGGSLRLSCAASGRIFATNAMGWYRPAPGKERELVATITRSAGRTYYADSVKGRFTISRDNAKNTVYLQMNSLKPEDTAVYYCAASYWDTEPGYREYDYWGQGTQVTVSS”, the “polyreactivity (PSR sort gate)” value was “low polyreactivity”.

Consider “QVHLVESGGGLVQAGGSLRLSCAASGRIFGRNAMGWYRQAPGKERELVAAISKRGGSTSYADSVKGRFTISRDNAKNTVYLQMNSLKPEDTAVYYCATSAPLVTSSGYGYWGHGTQVTVSS”, for which the “polyreactivity (PSR sort gate)” value is given as “high polyreactivity”.

In the case of “QVHLVESGGGLVQAGGSLRLSCAASGRIFGVYAMGWYRQAPGKERELVAVISWSGTSTYYADSVKGRFTISRDYAKNTVYLQMNSLKPEDTAVYYCAADYIGITDYYAIVVYLGYDSWGQGTQVTVSS”, the “polyreactivity (PSR sort gate)” value is “high polyreactivity”.

“QVHLVESGGGLVQAGGSLRLSCAASGRIFNPNAMGWYRQAPGKERELVAAITSGDSTNYADSVKGRFTISRDNAKNTVYLQMNSLKPEDTAVYYCAADWTYPYNSWGQGTQVTVSS”: the “polyreactivity (PSR sort gate)” value is “low polyreactivity”.

As for “QVHLVESGGGLVQAGGSLRLSCAASGRIFNWYVMGWYRQAPGKERELVAAITSGGITKYADSVKGRFTISRDNAKNTVYLQMNSLKPEDTAVYYCAAYYRRYDYDYWGQGSQVTVSS”, the “polyreactivity (PSR sort gate)” value is “high polyreactivity”.

Regarding “QVHLVESGGGLVQAGGSLRLSCAASGRIFPAYVMGWYRQAPGKERELVAGITSASSTYYADSVKGRFTISRDNAKNTVYLQMNSLKPEDTAVYYCAAVGYSVRQRYDYWGQGTQVTVSS”, the “polyreactivity (PSR sort gate)” value is “high polyreactivity”.

Consider “QVHLVESGGGLVQAGGSLRLSCAASGRIFRTYAMGWYRPAPGKERELVAAISGSGGRTYYADSVKGRFTISRDNAKNTVYLQMNSLIPEDTAVSYCAKYVSIVRYGSTTNYDYWGQGTQVTVSS”, for which the “polyreactivity (PSR sort gate)” value was “high polyreactivity”.

“QVHLVESGGGLVQAGGSLRLSCAASGRIFRYNAMGWYRQAPVKESELVAAISSIGGRTYYADSVKGRFTISRDNAKNTVYLQMNSLQPEDTAVYNCAALSYYVDGEYDYWGQGTQVTVSS”: the “polyreactivity (PSR sort gate)” value is listed as “high polyreactivity”.

Consider “QVHLVESGGGLVQAGGSLRLSCAASGRIFSNNAMGWYRQAPGKERELVATITGSGGRTYYADSVKGRFTISRDNAKNTVYLQMNSLKPEDTAVYYCAAVKRPDYYYWGQGTQVTVSS”, for which the “polyreactivity (PSR sort gate)” value is on record as “high polyreactivity”.

In the case of “QVHLVESGGGLVQAGGSLRLSCAASGRIFSWYTMGWYRQAPGKERELVAVITSGGTTKYADSVKGRFTISRDNAKNTVYLQMNSLKPEDTAVYYCNVAGRDYAVRWGSFDYWGQGTQVTVSS”, the “polyreactivity (PSR sort gate)” value is reported as “low polyreactivity”.

As for “QVHLVESGGGLVQAGGSLRLSCAASGRIFVPYVMGWNRQAPGTERELVASISDSDTSTYYADSVKGRFTISRDNAKNTVYVEMISLKPEDTAVYDCNVDYWGQGTHVTVSS”, the “polyreactivity (PSR sort gate)” value is recorded as “low polyreactivity”.

With “QVHLVESGGGLVQAGGSLRLSCAASGRIFYGYAMGWYRQAPWKEREFVAAITWRGGTFYADSVKGRFTISRDNAKNTVYLQMNSLKPEDTAVYYCAARVSSYGRYDYWGQGTQVTVSS”, the “polyreactivity (PSR sort gate)” value is listed as “high polyreactivity”.

“QVHLVESGGGLVQAGGSLRLSCAASGRIFYYNAIGWYRQAPGKERELVANITRARGTYYADSVKGPFTISRDNAKNTVYLQMNSLKPEDTAVYYCAKRHPIVDDYKGDYWGQGTQVTVSS”: the “polyreactivity (PSR sort gate)” value is given as “low polyreactivity”.

As for “QVHLVESGGGLVQAGGSLRLSCAASGRIFYYNTMGWYRQAPGKERELVAAITTNGGSTYYADSVKGRFTISRDNAKNTVYLQMNSLKPEDTAVYYCNRDRYPYYYAYNYWGQGTQVTVSS”, the “polyreactivity (PSR sort gate)” value is “low polyreactivity”.

In the case of “QVHLVESGGGLVQAGGSLRLSCAASGRIIWNYAMGWYRQAPGKERELVASINRSGGTTYYADSVKGRFTISRDNAKNTVYLQMNSLKPEDTAVYYCNTVYYGNFYSTRYDYWGQGTQVTVSS”, the “polyreactivity (PSR sort gate)” value is “high polyreactivity”.

On to “QVHLVESGGGLVQAGGSLRLSCAASGRILGYYAMVWYRQAPGKERELVAAISRGGRTNYADSVKGRFTISRDNAKNTVYLQMNSLKPEDTAVYYCAKDVAGLFHVGALYYYWGQGTQVTVSS”, for which the “polyreactivity (PSR sort gate)” value is “low polyreactivity”.

Turning to “QVHLVESGGGLVQAGGSLRLSCAASGRILNWNAMGWYRQAPGKDREFVAAIRTSGGDSTSYADSVKGRFTISRDNAKNTVYLQMTSLKPEDTAVFDCAKTVWWYYRYPFDYWGQGTQVTVSS”, the “polyreactivity (PSR sort gate)” value is reported as “low polyreactivity”.

With “QVHLVESGGGLVQAGGSLRLSCAASGRILTSNAMGWYRQAPGKERELVAAISWSGGSTYYADSVKGRFTISRVNAKNTVYLQMNSLKPEDTAVYYCAAPFTTTFDYWGQGTLVTVSS”, the “polyreactivity (PSR sort gate)” value is listed as “low polyreactivity”.

Turning to “QVHLVESGGGLVQAGGSLRLSCAASGRISYFYAMGWYRQAPGKESELVATITTSAGRTYYADSVKGRFTISRDNAKNTVYLLMNSLKPEDTAVYYCAASRYTYPYNYWGQGTQVTVSS”, the “polyreactivity (PSR sort gate)” value is “high polyreactivity”.

Take “QVHLVESGGGLVQAGGSLRLSCAASGRIYKYNAMGWYRQAPGKERELVAAISSGGSTNYADSVKGRFTISRDNAKNTVYLQMNSLKPEDTAVYYCAADGTRVSSFHYLVWLGYWGQGTQVTVSS”: the “polyreactivity (PSR sort gate)” value is recorded as “low polyreactivity”.

As for “QVHLVESGGGLVQAGGSLRLSCAASGRNSLRNGMGWYKQAPGKEWELDPAITSGSSTDYADSVKGRFTISRDNAKNTVDLEMNSLKPEDTAVSYCAKDLLQYGPGAGRYDYWGQGTQVTVSS”, the “polyreactivity (PSR sort gate)” value is recorded as “low polyreactivity”.

For “QVHLVESGGGLVQAGGSLRLSCAASGRTFAPNAMGWYIQAPGKERELVAAISYNSGTTYYADSVKGRFTISRDNAKNTVYLQMNSLKPEDTAVYYCAARRYYKYDWGQGTQVTVSS”, the “polyreactivity (PSR sort gate)” value was “high polyreactivity”.

For the sequence “QVHLVESGGGLVQAGGSLRLSCAASGRTFGYYAMGWYRQAPGKERELVATISGRAGRTYYADSVKGRFTISRDNAKNTVYLQMNSLKPEDTAVYYCATRSLQKYYWIANSYGYWGHGTQVTVSS”, the “polyreactivity (PSR sort gate)” value is “high polyreactivity”.

Consider “QVHLVESGGGLVQAGGSLRLSCAASGRTFQYNAMGWYRQSPGTERELVAAISWRGARTYYADSVKGRFTISRDYAKNTVYLQMNSLNPEDTAVYYCAAAPYGYRRYEYWGQGTQVTVSS”, for which the “polyreactivity (PSR sort gate)” value is recorded as “high polyreactivity”.

Regarding “QVHLVESGGGLVQAGGSLRLSCAASGRTFRQYAMGWNIQAPGKERELVATISSGGSTYYADSVKGRFTISRDNAKNTVYLQMNSLKPEDTSVYYCAAASGTKRLYRGTRGDYWGQGTQVTVSS”, the “polyreactivity (PSR sort gate)” value is reported as “low polyreactivity”.

For “QVHLVESGGGLVQAGGSLRLSCAASGRTFTGYAMGWYRQAPGKEREFVAAISSGGVRTYYADSVKGRFTISRDNAKNTVYLQMNSLKPEDTAVYYCNARQVYYRGTFRYSYDYWGQGTQVTVSS”, the “polyreactivity (PSR sort gate)” value is “high polyreactivity”.

As for “QVHLVESGGGLVQAGGSLRLSCAASGRTFVRYAMGWYRQAPGKERELVAAISLRGGRTYYADSVKGRFTISRDNAKNTVYLQMNSLKPEDTAVYYCAARSYPTGASYDYWGQGTQVTVSS”, the “polyreactivity (PSR sort gate)” value was “high polyreactivity”.

Consider “QVHLVESGGGLVQAGGSLRLSCAASGRTFVYNSMGWYRQAPGKERELVAAISSDGASTYYADSVKGRFTISRDNAKNTVYLQMNSLKPEDTAVYYCAADFSYYSYEHYYWGQGTQVTVSS”, for which the “polyreactivity (PSR sort gate)” value is reported as “low polyreactivity”.

As to “QVHLVESGGGLVQAGGSLRLSCAASGRTFWIYGMGWYRPATGKERELVAAITRSGGSTNYADSVKGRFTLSRDNAKNNVYLQMNSLKPEVTAVYYGAADTWYPGYYAYDYRGQGTQVTVSS”, the “polyreactivity (PSR sort gate)” value is “high polyreactivity”.

Turning to “QVHLVESGGGLVQAGGSLRLSCAASGRTFYRYAMGWYRQAPGKERELVAAINTGGSTYYADSVKGRFTISRDNAKTTVYLQMNSLKPEVTAVYYCAAEAASWWGYGYWGQGTKVTVSS”, the “polyreactivity (PSR sort gate)” value was “high polyreactivity”.

Take “QVHLVESGGGLVQAGGSLRLSCAASGSIFAVYAMGWYRQAPGKERELVAAITRSGRTSYADSVKGRFTISRDNAKNTVYLQMNSLKPEDTAVFYCAVRTYYPTFGGFYYWGQGTQVTVSS”: the “polyreactivity (PSR sort gate)” value was “high polyreactivity”.

As to “QVHLVESGGGLVQAGGSLRLSCAASGSIFEAYAMGWSRQAPGKERELVAVISWRGGLTYYPDSVKGRFTISRDNAKNTLYLQMNSLKPDDTAVYYCNKAYWWHQVGLPRNYEYWGQGTQVTVSS”, the “polyreactivity (PSR sort gate)” value is listed as “low polyreactivity”.

For “QVHLVESGGGLVQAGGSLRLSCAASGSIFFDGNAMGWYRQAPGKERELVAAISVSGGSTYYADSVKGRFTISRDNAKNTVYLQMNSLKPEDTAVYYCAKYPSNSYVPGDYWGQGTQVTVSS”, the “polyreactivity (PSR sort gate)” value is reported as “low polyreactivity”.

In the case of “QVHLVESGGGLVQAGGSLRLSCAASGSIFFGYAKGWYRQAPGKERELVAGMDTGGSTDYADSVTGRFTISRDNAKNTVYLQMNSLKPEDTAVYYWATYSYGAVTVDYWGQGTQVTVSS”, the “polyreactivity (PSR sort gate)” value is listed as “low polyreactivity”.

For “QVHLVESGGGLVQAGGSLRLSCAASGSIFFGYTMGWYRQAPGKERELVAAITRRGGSTYYADSVKGRFTISRDNAKNTVYLQMNSLKPVDTAVYYCAAEVRRYVIVPYYYWGQGTQVTVSS”, the “polyreactivity (PSR sort gate)” value was “high polyreactivity”.

Consider “QVHLVESGGGLVQAGGSLRLSCAASGSIFGSQNAMGWYRQAPGKERELVAAYYTARGARTYYADSVKGRFTISRDNAKNTVYLQMNSLKPEDTAVYYCAPRRYGRYRYDYWGQGTQVTVSS”, for which the “polyreactivity (PSR sort gate)” value is “low polyreactivity”.

With “QVHLVESGGGLVQAGGSLRLSCAASGSIFGSYAMGWYRQAPGKERELVASITRVDSTNYADSVKGRFTISRDNAKNTVYLQMNSLKPEDTAVYYCNAGKTIDYRDGVGYDHWGQGTQVTVSS”, the “polyreactivity (PSR sort gate)” value was “low polyreactivity”.

Values taken from the nanobody polyreactivity screen of Harvey et al. (2022).
